Blank lines part the entries; values can stand above or below the binder they belong to.
Columns and labels:
[1] = target: T1, biotinylated hPD-L1 fused to human IgG Fc (BPS Bioscience) (human, UniProt Q9NZQ7 19-238, biotinylated (site not stated)); assay: competitive ELISA, human PD-1/PD-L1
T1 construct: extracellular domain; Bought from BPS Bioscience; also called human PD-L1
Protocol: (§1) The ability of nanobodies (Nbs) to inhibit the binding of PD-1 with PD-L1 was evaluated by competitive ELISA. For human molecules, plates were coated with 0.5 μg/mL hPD-1-Fc (R&D, Minneapolis, MN) in PBS o/n at 4° C. […] For mouse molecules, a similar protocol was followed. […] The signal of wells incubated without Nbs or antibodies were considered 100% of PD-1/PD-L1 binding.

[2] = target: T2, mPD-L1-Fc (mouse PD-L1 ectodomain fused to human IgG1 Fc, BioLegend) (mouse; human, UniProt Q9EP73 19-239); assay: competitive ELISA, mouse PD-1/PD-L1
T2 construct: extracellular domain; Bought from BioLegend; not shown: human IgG1 Fc domain
Protocol: as §1

[3] = target: T1, biotinylated hPD-L1 fused to human IgG …; assay: competitive ELISA, human PD-1/PD-L1; the reference value of envafolimab (5.25 nM) is from the literature
[4] = target: T3, hPD-1-Fc (human PD-1 ectodomain fused to human IgG1 Fc, R&D) (human, UniProt Q15116 25-170); assay: competitive ELISA, human PD-1/PD-L1
T3 construct: extracellular domain; Bought from R&D; not shown: human IgG1 Fc domain
Protocol: as §1

[5] = target: T4, biotinylated mPD-1-Fc (BPS Bioscience) (mouse; human, UniProt Q02242 25-169, biotinylated (site not stated)); assay: competitive ELISA, mouse PD-1/PD-L1
T4 construct: extracellular domain; Bought from BPS Bioscience; also called mouse PD-1
T4 sequence (looked up): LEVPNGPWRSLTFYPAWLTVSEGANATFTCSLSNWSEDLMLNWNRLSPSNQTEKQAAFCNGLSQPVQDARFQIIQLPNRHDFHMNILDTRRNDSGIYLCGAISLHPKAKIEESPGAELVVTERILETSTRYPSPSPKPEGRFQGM
Protocol: as §1

T1 sequence (Q9NZQ7 19-238): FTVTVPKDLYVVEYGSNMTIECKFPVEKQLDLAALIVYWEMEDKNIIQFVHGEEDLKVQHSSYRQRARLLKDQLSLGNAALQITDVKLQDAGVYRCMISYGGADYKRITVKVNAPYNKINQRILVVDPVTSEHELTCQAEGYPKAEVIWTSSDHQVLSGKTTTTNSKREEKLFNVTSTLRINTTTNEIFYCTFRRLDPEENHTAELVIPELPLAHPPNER
T3 sequence (Q15116 25-170): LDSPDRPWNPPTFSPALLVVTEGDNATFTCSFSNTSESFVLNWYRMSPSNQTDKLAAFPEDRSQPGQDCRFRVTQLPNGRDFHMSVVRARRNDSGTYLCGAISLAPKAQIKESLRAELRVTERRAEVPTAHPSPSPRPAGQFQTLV
T2 sequence (Q9EP73 19-239): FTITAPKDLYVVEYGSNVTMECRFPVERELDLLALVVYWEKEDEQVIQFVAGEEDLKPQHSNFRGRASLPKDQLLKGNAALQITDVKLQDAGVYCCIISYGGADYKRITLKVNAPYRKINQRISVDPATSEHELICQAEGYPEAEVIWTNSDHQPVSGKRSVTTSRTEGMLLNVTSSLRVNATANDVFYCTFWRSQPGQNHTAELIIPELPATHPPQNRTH

fold IC50 reduction against monomeric Nb6p [1]: ~7 fold
fold IC50 reduction of the Fc homodimer against monomeric Nb6p [1]: ~8 fold
fold IC50 reduction against monomeric Nb6p [2]: ~7 fold
fold IC50 reduction of the Fc homodimer against monomeric Nb6p [2]: ~8 fold
fold by which the literature IC50 of envafolimab is higher than that of Nb6p-Fc [3]: ~10 fold
B1: Nb6p-Fc (Nb6p fused to mouse IgG2a Fc domain including hinge) (Fc fusion)
chain: AEVQLVESGGGLVQAGGSLRLSCAAAGRSFNSNAMGWVRQAPGKEREIVAVISATGSYTYYEDSVKGRFTISRDNSKNTVSLQMSSLSSEDTAVYYCAGSRTAALTTIMTLFNYWGQGTQVTVSSPGPRGPTIKPCPPCKCPAPNLLGGPSVFIFPPKIKDVLMISLSPIVTCVVVDVSEDDPDVQISWFVNNVEVHTAQTQTHREDYNSTLRVVSALPIQHQDWMSGKEFKCKVNNKDLPAPIERTISKPKGSVRAPQVYVLPPPEEEMTKKQVTLTCMVTDFMPEDIYVEWTNNGKTELNYKNTEPVLDSDGSYFMYSKLRVEKKNWVERNSYSCSVVHEGLHNHHTTKSFSRTPGK
notes: Fc homodimer, purified on protein A from supernatants of BHK-21 cells electroporated with SFV-Nb6p-Fc RNA; also called dimeric Nb6p

fold IC50 reduction against monomeric Nb11 [4]: ~40 fold
fold IC50 reduction against nivolumab [4]: 10 fold
fold lower IC50 than nivolumab [4]: 8.6 fold
fold IC50 reduction against clone RMPI-14 [5]: 700 fold
fold IC50 reduction against monomeric Nb11 [5]: ~40 fold
B2: Nb11-Fc (Nb11 fused to mouse IgG1 Fc domain including hinge) (Fc fusion)
chain: AQVQLVQSGGGSVQAGDSLRLSCAVSGHPDSSYSMAWFRQAPGKERELVALISWSGAITHYSDSVKDRFTISRDNAKNEMYLQMDSLKPEDTAVYFCQADDPTSELNQYWGQGTQVTVSSGCKPCICTVPEVSSVFIFPPKPKDVLTITLTPKVTCVVVDISKDDPEVQFSWFVDDVEVHTAQTQPREEQFNSTFRSVSELPIMHQDWLNGKEFKCRVNSAAFPAPIEKTISKTKGRPKAPQVYTIPPPKEQMAKDKVSLTCMITDFFPEDITVEWQWNGQPAENYKNTQPIMDTDGSYFVYSKLNVQKSNWEAGNTFTCSVLHEGLHNHHTEKSLSHSPGK
notes: Fc homodimer, concentrated from supernatants of BHK-21 cells electroporated with SFV-Nb11-Fc RNA; also called dimeric Nb11

Source: US20260146091A1 (FUNDACI N PARA LA INVESTIGACI N M DICA APLICADA, published 2026)
